Experimental data published in article PMC6886308, “NADP(H) allosterically regulates the interaction between ferredoxin and ferredoxin‐NADP^+ reductase” (FEBS Open Bio, 2019).
Numbering of substitutions follows the chain as printed. In names and notes the source's numbering stands. Each block holds one molecule with its values, some of them ahead of it.

Assays:
[1] = molecular target: maize leaf ferredoxin-NADP+ reductase, wild-type (maize); assay: ITC; 500 uM Fd I in the syringe titrated into 50 uM L-FNR in the cell; 50 mM Tris/HCl pH 7.5, no NaCl, 298 K; one set of independent binding sites; 50 uM NADP+
[2] = molecular target: maize leaf ferredoxin-NADP+ reductase R244Q (maize); assay: as above
[3] = molecular target: maize leaf ferredoxin-NADP+ reductase Y314S (maize); assay: as above
[4] = molecular target: maize leaf ferredoxin-NADP+ reductase R235Q (maize); assay: as above
[5] = molecular target: maize leaf ferredoxin-NADP+ reductase, wild-type (maize); assay: ITC; 500 uM Fd I in the syringe titrated into 50 uM L-FNR in the cell; 50 mM Tris/HCl pH 7.5, no NaCl, 298 K; one set of independent binding sites; 500 uM NADP+
[6] = molecular target: maize leaf ferredoxin-NADP+ reductase R244Q (maize); assay: as above
[7] = molecular target: maize leaf ferredoxin-NADP+ reductase Y314S (maize); assay: as above
[8] = molecular target: maize leaf ferredoxin-NADP+ reductase R235Q (maize); assay: as above
[9] = molecular target: maize leaf ferredoxin-NADP+ reductase, wild-type (maize)
[10] = molecular target: maize leaf ferredoxin-NADP+ reductase R244Q (maize)
[11] = molecular target: maize leaf ferredoxin-NADP+ reductase Y314S (maize)
[12] = molecular target: maize leaf ferredoxin-NADP+ reductase R235Q (maize)
[13] = molecular target: maize leaf ferredoxin-NADP+ reductase, wild-type (maize); assay: ITC; 500 uM Fd I in the syringe titrated into 50 uM L-FNR in the cell; 50 mM Tris/HCl pH 7.5, no NaCl, 298 K; one set of independent binding sites; 0 uM NADP+
[14] = molecular target: maize leaf ferredoxin-NADP+ reductase R244Q (maize); assay: as above
[15] = molecular target: maize leaf ferredoxin-NADP+ reductase Y314S (maize); assay: as above
[16] = molecular target: maize leaf ferredoxin-NADP+ reductase R235Q (maize); assay: as above
maize leaf FNR (L‐FNR) = molecular target: T1, maize leaf FNR (L‐FNR) (Zea mays, UniProt Q9SLP6); assay: ITC of Fd I binding to FNR in presence of ligand; Fd-affinity chromatography; settings: 0-500 μM NADP+ (ITC); 50 mM Tris/HCl, pH 7.5; 298 K; allosteric on Fd binding
T1 construct: gene L-FNRI; recombinant mature leaf FNR, FAD flavoprotein, C-terminal Tyr314
T1 sequence (Q9SLP6 42-355): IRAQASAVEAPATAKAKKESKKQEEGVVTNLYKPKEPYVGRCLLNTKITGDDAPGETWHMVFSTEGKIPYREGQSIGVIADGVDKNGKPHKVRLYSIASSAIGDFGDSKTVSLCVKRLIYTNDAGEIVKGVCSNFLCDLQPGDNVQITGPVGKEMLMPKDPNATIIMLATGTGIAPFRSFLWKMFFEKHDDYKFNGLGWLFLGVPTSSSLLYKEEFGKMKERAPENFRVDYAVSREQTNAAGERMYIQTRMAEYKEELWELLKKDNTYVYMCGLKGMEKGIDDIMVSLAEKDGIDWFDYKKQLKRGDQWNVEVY

[17] = substrate: NC(=O)C1=CN([C@@H]2O[C@H](COP(=O)(O)OP(=O)(O)OC[C@H]3O[C@@H](n4cnc5c(N)ncnc54)[C@H](OP(=O)(O)O)[C@@H]3O)[C@@H](O)[C@H]2O)C=CC1; assay: NADPH-dependent diaphorase assay; type: biochemical, Zea mays; settings: DCPIP as electron acceptor
From the text: NADPH-dependent diaphorase assay on maize leaf FNR (L‐FNR)

Kd [1]: 1600 nM
dH [1]: 8.8 kcal/mol
stoichiometry N [1]: 0.7
Kd [2]: 790 nM
dH [2]: 7.4 kcal/mol
stoichiometry N [2]: 0.8
Kd [3]: 2600 nM
dH [3]: 4.3 kcal/mol
stoichiometry N [3]: 0.7
Kd [4]: 780 nM
dH [4]: 7.3 kcal/mol
stoichiometry N [4]: 0.7
Kd [5]: 3700 nM
dH [5]: 6.7 kcal/mol
stoichiometry N [5]: 0.8
Kd [6]: 1100 nM
dH [6]: 5.8 kcal/mol
stoichiometry N [6]: 1
Kd [7]: 2300 nM
dH [7]: 3.6 kcal/mol
stoichiometry N [7]: 0.7
Kd [8]: 1300 nM
dH [8]: 6.3 kcal/mol
stoichiometry N [8]: 0.9
apparent Km for Fd in NADPH-dependent cyt c reduction, at 50 uM, 250 uM, 500 uM and 1 mM NADPH (3.5 to 44 uM) [9]: 44 µM
Km for Fd in NADPH-dependent cyt c reduction, at 50 uM, 250 uM, 500 uM and 1 mM NADPH (0.75 to 6.9 uM) [10]: 6.9 µM
Km for Fd in NADPH-dependent cyt c reduction, at 50 uM, 250 uM and 500 uM NADPH (17, 13, 18 uM; not determined at 1 mM) [11]: 18 µM
Km for Fd in NADPH-dependent cyt c reduction, at 50 uM, 250 uM, 500 uM and 1 mM NADPH (0.30 to 5.0 uM) [12]: 5 µM
Kd [13]: 1200 nM
dH [13]: 9.8 kcal/mol
stoichiometry N [13]: 0.7
Kd [14]: 760 nM
dH [14]: 8.3 kcal/mol
stoichiometry N [14]: 0.7
Kd [15]: 2200 nM
dH [15]: 5.6 kcal/mol
stoichiometry N [15]: 0.7
Kd [16]: 870 nM
dH [16]: 8.3 kcal/mol
stoichiometry N [16]: 0.7
Molecule: maize leaf ferredoxin I (from UniProt P27787 53-150) (natural protein)

Molecule: NC(=O)c1ccc[n+]([C@@H]2O[C@H](COP(=O)(O)OP(=O)(O)OC[C@H]3O[C@@H](n4cnc5c(N)ncnc54)[C@H](OP(=O)(O)O)[C@@H]3O)[C@@H](O)[C@H]2O)c1 [NADP^+]
ITC of Fd I binding to FNR in presence of ligand; Fd-affinity chromatography (maize leaf FNR (L‐FNR)): The resulting dissociation constant (K d) increased by addition of NADP^+ into the titration reaction

B1: maize leaf FNR (L‐FNR) (Zea mays) (protein)
chain: T1 sequence (Q9SLP6 42-355)
notes: recombinant mature leaf FNR, FAD flavoprotein, C-terminal Tyr314
Km [17]: 46 ± 3 µM
kcat [17]: 76 ± 14 s⁻¹

B2: maize leaf FNR (L‐FNR) (Zea mays; Y355S) (protein)
chain: T1 sequence (Q9SLP6 42-355) with Y314S
notes: as for B1
Km [17]: 0.27 ± 0.08 µM
kcat [17]: 41 ± 6 s⁻¹

B3: maize leaf FNR (L‐FNR) (Zea mays; R276Q) (protein)
chain: T1 sequence (Q9SLP6 42-355) with R235Q
notes: as for B1
Km [17]: 500 ± 120 µM
kcat [17]: 60 ± 7 s⁻¹

B4: maize leaf FNR (L‐FNR) (Zea mays; R285Q) (protein)
chain: T1 sequence (Q9SLP6 42-355) with R244Q
notes: as for B1
Km [17]: 310 ± 60 µM
kcat [17]: 139 ± 13 s⁻¹
